Laboratory results: article PMC10037535

Target: F-4p-18mer-tail (synthetic fluorescein-labeled tetraphosphorylated PTEN C-tail peptide)
Assay: fluorescence polarisation

fold weakening of the phospho-tail interaction against wild-type VSP: 3.4 fold
Substance: VSP Asp mutants of the active site Lys residues (Lys364 and Lys367) (domain or fragment)
